According to the supplement of paper PMC10126150:
± gives the standard deviation of the averaged measurements.

Tested on: ATP
Assay: switch fluorescence ratio, 500 uM ATP over buffer (Cy3 cluster intensity, sum of 5 cycles each) (fold (ratio)); higher = stronger signal-on switching upon ATP binding; sequences stand for … in TCGTCGGCAGCGTCAGATGTGTATAAGAGACAGTTTTTTTTTTTTTTTTTTTTTTTTT…TC
Conditions: aptamer strand: ATP DNA aptamer (quencher-CACCTGGGGGAGTATTGCGGAGGAAGG + anchor), 100 nM annealed; ATP concentration: 500 uM
Procedure, shortened: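 For every switch-domain sequence, the fluorescence ratio is the mean of per-cluster values, each being summed target-cycle Cy3 intensity over summed buffer-cycle Cy3 intensity. Clusters outside 100-1000 RFU were excluded. On a modified Illumina MiSeq flow-cell, the Cy3-labelled switching-strand clusters were annealed to 100 nM quencher-labelled ATP aptamer, imaged in selection buffer and then after 15 min with 500 uM ATP at 22 °C. Five such cycles were run, with NaOH stripping and re-annealing between them.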
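Further: ATP exposure 15 min at 22 °C before imaging.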

## GGGTTCAGGG
  switch fluorescence ratio: 0.977 ± 0.02

## GGGTTCATGT
  switch fluorescence ratio: 1.006 ± 0.0027

## GGGTTCATTC
  switch fluorescence ratio: 0.998 ± 0.026

## GGGTTCCATT
  switch fluorescence ratio: 1.023 ± 0.0075

## GGGTTCGTGG
  switch fluorescence ratio: 0.997 ± 0.031

## GGGTTCTCAG
  switch fluorescence ratio: 0.995 ± 0.024

## GGGTTCTGGA
  switch fluorescence ratio: 1.01 ± 0.019

## GGGTTGATCT
  switch fluorescence ratio: 0.993 ± 0.011

## GGGTTGGGGC
  switch fluorescence ratio: 0.999 ± 0.049

## GGGTTGGTTA
  switch fluorescence ratio: 1 ± 0.04

## GGGTTGTCAA
  switch fluorescence ratio: 0.975 ± 0.0099

## GGGTTGTTAC
  switch fluorescence ratio: 1.14 ± 0.069

## GGGTTGTTAG
  switch fluorescence ratio: 0.996 ± 0.027

## GGGTTGTTGG
  switch fluorescence ratio: 0.9963 ± 0.0015

## GGGTTGTTTC
  switch fluorescence ratio: 0.973 ± 0.027

## GGGTTTACGA
  switch fluorescence ratio: 1.01 ± 0.074

## GGGTTTACTG
  switch fluorescence ratio: 1 ± 0.022

## GGGTTTAGTG
  switch fluorescence ratio: 0.962 ± 0.014

## GGGTTTCGTT
  switch fluorescence ratio: 0.99 ± 0.05

## GGGTTTGGGT
  switch fluorescence ratio: 1.01 ± 0.053

## GGGTTTTACA
  switch fluorescence ratio: 0.9813 ± 0.0029

## GGGTTTTAGC
  switch fluorescence ratio: 1.03 ± 0.076

## GGGTTTTCCG
  switch fluorescence ratio: 1.02 ± 0.035

## GGGTTTTTCT
  switch fluorescence ratio: 0.99 ± 0.036

## GGTAAAAAGG
  switch fluorescence ratio: 0.971 ± 0.022

## GGTAAAGGAT
  switch fluorescence ratio: 0.991 ± 0.039

## GGTAACAGGG
  switch fluorescence ratio: 1.02 ± 0.032

## GGTAACGAGG
  switch fluorescence ratio: 0.963 ± 0.039

## GGTAACGTTT
  switch fluorescence ratio: 0.985 ± 0.027

## GGTAAGATCG
  switch fluorescence ratio: 0.9785 ± 0.0077

## GGTAAGGGCC
  switch fluorescence ratio: 1.01 ± 0.034

## GGTAATAGGG
  switch fluorescence ratio: 0.996 ± 0.036

## GGTAATTAAA
  switch fluorescence ratio: 0.974 ± 0.011

## GGTACAGGGA
  switch fluorescence ratio: 1.02 ± 0.015

## GGTACGAAAC
  switch fluorescence ratio: 1.68 ± 0.75

## GGTACGAACG
  switch fluorescence ratio: 1.29 ± 0.045

## GGTACGAGGT
  switch fluorescence ratio: 0.972 ± 0.019

## GGTACGTGCA
  switch fluorescence ratio: 0.99 ± 0.024

## GGTACGTTGG
  switch fluorescence ratio: 1.02 ± 0.0078

## GGTACTAGGC
  switch fluorescence ratio: 1.04 ± 0.08

## GGTACTGAGC
  switch fluorescence ratio: 1.03 ± 0.061

## GGTACTTGGA
  switch fluorescence ratio: 1.04 ± 0.032

## GGTACTTGTT
  switch fluorescence ratio: 1.05 ± 0.052

## GGTAGAGCTG
  switch fluorescence ratio: 1 ± 0.018

## GGTAGATGCG
  switch fluorescence ratio: 1.03 ± 0.04

## GGTAGCAAGT
  switch fluorescence ratio: 1.05 ± 0.034

## GGTAGCGAAA
  switch fluorescence ratio: 1.009 ± 0.0051

## GGTAGGAAAC
  switch fluorescence ratio: 0.994 ± 0.045

## GGTAGGGCGT
  switch fluorescence ratio: 1.01 ± 0.027

## GGTAGGGGTT
  switch fluorescence ratio: 1 ± 0.053

## GGTAGGTGGC
  switch fluorescence ratio: 0.952 ± 0.027

## GGTAGGTGGG
  switch fluorescence ratio: 1.01 ± 0.055

## GGTAGTACTG
  switch fluorescence ratio: 0.995 ± 0.095

## GGTAGTTCCT
  switch fluorescence ratio: 1.02 ± 0.013

## GGTAGTTGCC
  switch fluorescence ratio: 1.02 ± 0.034

## GGTAGTTGTG
  switch fluorescence ratio: 0.982 ± 0.013

## GGTATAGAGA
  switch fluorescence ratio: 0.986 ± 0.051

## GGTATCAGGG
  switch fluorescence ratio: 0.999 ± 0.022

## GGTATCCGGG
  switch fluorescence ratio: 0.974 ± 0.019

## GGTATCTAGA
  switch fluorescence ratio: 1.02 ± 0.0067

## GGTATCTTAG
  switch fluorescence ratio: 0.9857 ± 0.0087

## GGTATGGTAC
  switch fluorescence ratio: 1.086 ± 0.0055

## GGTATGTTAA
  switch fluorescence ratio: 0.98 ± 0.014

## GGTATGTTTG
  switch fluorescence ratio: 0.96 ± 0.043

## GGTATGTTTT
  switch fluorescence ratio: 0.978 ± 0.037

## GGTATTCAGC
  switch fluorescence ratio: 0.957 ± 0.052

## GGTATTGCGG
  switch fluorescence ratio: 1.05 ± 0.023

## GGTATTGGAC
  switch fluorescence ratio: 0.9947 ± 0.0058

## GGTATTGTAG
  switch fluorescence ratio: 0.982 ± 0.025

## GGTATTGTGT
  switch fluorescence ratio: 1.02 ± 0.028

## GGTATTTTTG
  switch fluorescence ratio: 0.992 ± 0.019

## GGTCAGGCGA
  switch fluorescence ratio: 0.989 ± 0.016

## GGTCAGTGTC
  switch fluorescence ratio: 0.981 ± 0.052

## GGTCATGGGG
  switch fluorescence ratio: 0.978 ± 0.023

## GGTCCAAGAT
  switch fluorescence ratio: 0.9998 ± 0.0066

## GGTCCAGTGT
  switch fluorescence ratio: 1.06 ± 0.016

## GGTCCTGTTT
  switch fluorescence ratio: 0.994 ± 0.02

## GGTCGAGGGG
  switch fluorescence ratio: 0.997 ± 0.021

## GGTCGATGAT
  switch fluorescence ratio: 0.98739 ± 0.00068

## GGTCGCCTCA
  switch fluorescence ratio: 0.9687 ± 0.0086

## GGTCGGGC
  switch fluorescence ratio: 0.969 ± 0.03

## GGTCGGGGCG
  switch fluorescence ratio: 1.02 ± 0.071

## GGTCGGGTTC
  switch fluorescence ratio: 0.985 ± 0.015

## GGTCGGGTTG
  switch fluorescence ratio: 0.979 ± 0.011

## GGTCGTAGGG
  switch fluorescence ratio: 1.01 ± 0.016

## GGTCTAACAT
  switch fluorescence ratio: 0.998 ± 0.015

## GGTCTACTTG
  switch fluorescence ratio: 0.984 ± 0.057

## GGTCTAGAGA
  switch fluorescence ratio: 0.98 ± 0.033

## GGTCTATCCG
  switch fluorescence ratio: 0.983 ± 0.046

## GGTCTCAAGA
  switch fluorescence ratio: 0.993 ± 0.023

## GGTCTCTTAC
  switch fluorescence ratio: 1.02 ± 0.037

## GGTCTGGGGA
  switch fluorescence ratio: 1.024 ± 0.0073

## GGTCTTGGCA
  switch fluorescence ratio: 0.985 ± 0.052

## GGTCTTTTGT
  switch fluorescence ratio: 0.998 ± 0.042

## GGTGAACTTT
  switch fluorescence ratio: 0.964 ± 0.015

## GGTGAAGGCA
  switch fluorescence ratio: 1 ± 0.023

## GGTGAAGGGG
  switch fluorescence ratio: 1.15 ± 0.27

## GGTGAAGTGC
  switch fluorescence ratio: 0.992 ± 0.068

## GGTGACTTGG
  switch fluorescence ratio: 1.01 ± 0.055

## GGTGAGCCTT
  switch fluorescence ratio: 0.987 ± 0.012
